Test results from the supplement of paper PMC6757056.
± gives the standard deviation of the averaged measurements.

B1: library; a variant is named by its letters at N, in order (parent)
chain: GCUGUCACCGAGAAACUGUGAAGUAUAUCUUAAACCUGGGCACUUAAAAGAUAUAUGGAGUUAGUAGUGCAACCUGCUCGGUCUGAUGAGUCCNNNNNNGGACGAAACAGC

Legend:
cyclic di-GMP [1] = variants of: B1; experiment: normalized RNA/DNA level without ligand (relative to sTRSVctl = 100) (log10 (% of sTRSVctl)); HEK293T; ligand: cyclic di-GMP (c-di-GMP-II aptamer); higher = less ribozyme self-cleavage, higher mRNA level; details: reporter: mCherry (pCS4076), ligand present: no
Summary of the method: (§1)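 Total RNA, extracted with EDTA 72 h after HEK293T cells were transfected with 4 µg per 6-well well of reporter-linked ribozyme switch library plasmids, was reverse-transcribed, amplified, barcoded and sequenced. Ligand, if used, was added 1 h before transfection. RNA level was derived from RNA reads divided by DNA reads and normalized to a spiked-in non-cleaving sequence or to the top sequences. This was multiplied by 100 and log10-transformed, with the top set of 25 sequences and a ≥100 DNA read minimum.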

cyclic di-GMP [2] = variants of: B1; experiment: normalized RNA/DNA level with ligand (relative to sTRSVctl = 100) (log10 (% of sTRSVctl)); HEK293T; ligand: cyclic di-GMP (c-di-GMP-II aptamer); ligand concentration (+) RNA-Seq: 1 mM; higher = less ribozyme self-cleavage, higher mRNA level; details: reporter: mCherry (pCS4076), ligand present: yes
Summary of the method: as §1

Variant	normalized RNA/DNA level without ligand (log10) (cyclic di-GMP [1])	normalized RNA/DNA level with ligand (log10) (cyclic di-GMP [2])
GCUGUCACCGAGAAACUGUGAAGUAUAUCUUAAACCUGGGCACUUAAAAGAUAUAUGGAGUUAGUAGUGCAACCUGCUCGGUCUGAUGAGUCCCUGGCUGGACGAAACAGC	1.771 ± 0.0077	1.87 ± 0.067
GCUGUCACCGAGAAACUGUGAAGUAUAUCUUAAACCUGGGCACUUAAAAGAUAUAUGGAGUUAGUAGUGCAACCUGCUCGGUCUGAUGAGUCCGGUAGAGGACGAAACAGC	1.34 ± 0.04	1.55 ± 0.1
GCUGUCACCGAGAAACUGUGAAGUAUAUCUUAAACCUGGGCACUUAAAAGAUAUAUGGAGUUAGUAGUGCAACCUGCUCGGUCUGAUGAGUCCAUUACCGGACGAAACAGC	1.73 ± 0.057	1.88 ± 0.052
GCUGUCACCGAGAAACUGUGAAGUAUAUCUUAAACCUGGGCACUUAAAAGAUAUAUGGAGUUAGUAGUGCAACCUGCUCGGUCUGAUGAGUCCCACGUCGGACGAAACAGC	1.73 ± 0.075	1.87 ± 0.11
GCUGUCACCGAGAAACUGUGAAGUAUAUCUUAAACCUGGGCACUUAAAAGAUAUAUGGAGUUAGUAGUGCAACCUGCUCGGUCUGAUGAGUCCCGUUCGGGACGAAACAGC	1.81 ± 0.095	1.9 ± 0.16
GCUGUCACCGAGAAACUGUGAAGUAUAUCUUAAACCUGGGCACUUAAAAGAUAUAUGGAGUUAGUAGUGCAACCUGCUCGGUCUGAUGAGUCCUAGCUGGGACGAAACAGC	1.74 ± 0.038	1.86 ± 0.084
GCUGUCACCGAGAAACUGUGAAGUAUAUCUUAAACCUGGGCACUUAAAAGAUAUAUGGAGUUAGUAGUGCAACCUGCUCGGUCUGAUGAGUCCAUAAUGGGACGAAACAGC	1.58 ± 0.034	1.75 ± 0.059
GCUGUCACCGAGAAACUGUGAAGUAUAUCUUAAACCUGGGCACUUAAAAGAUAUAUGGAGUUAGUAGUGCAACCUGCUCGGUCUGAUGAGUCCCAAAGCGGACGAAACAGC	1.717 ± 0.011	1.84 ± 0.091
GCUGUCACCGAGAAACUGUGAAGUAUAUCUUAAACCUGGGCACUUAAAAGAUAUAUGGAGUUAGUAGUGCAACCUGCUCGGUCUGAUGAGUCCAGUUGCGGACGAAACAGC	1.67 ± 0.029	1.82 ± 0.12
GCUGUCACCGAGAAACUGUGAAGUAUAUCUUAAACCUGGGCACUUAAAAGAUAUAUGGAGUUAGUAGUGCAACCUGCUCGGUCUGAUGAGUCCAGGGCAGGACGAAACAGC	1.756 ± 0.017	1.81 ± 0.048
GCUGUCACCGAGAAACUGUGAAGUAUAUCUUAAACCUGGGCACUUAAAAGAUAUAUGGAGUUAGUAGUGCAACCUGCUCGGUCUGAUGAGUCCUUAUCGGGACGAAACAGC	1.783 ± 0.014	1.86 ± 0.14
GCUGUCACCGAGAAACUGUGAAGUAUAUCUUAAACCUGGGCACUUAAAAGAUAUAUGGAGUUAGUAGUGCAACCUGCUCGGUCUGAUGAGUCCUAACCAGGACGAAACAGC	1.74 ± 0.036	1.86 ± 0.13
GCUGUCACCGAGAAACUGUGAAGUAUAUCUUAAACCUGGGCACUUAAAAGAUAUAUGGAGUUAGUAGUGCAACCUGCUCGGUCUGAUGAGUCCGCUGAUGGACGAAACAGC	1.55 ± 0.061	1.72 ± 0.087
GCUGUCACCGAGAAACUGUGAAGUAUAUCUUAAACCUGGGCACUUAAAAGAUAUAUGGAGUUAGUAGUGCAACCUGCUCGGUCUGAUGAGUCCCUGGUCGGACGAAACAGC	1.68 ± 0.032	1.8 ± 0.14
GCUGUCACCGAGAAACUGUGAAGUAUAUCUUAAACCUGGGCACUUAAAAGAUAUAUGGAGUUAGUAGUGCAACCUGCUCGGUCUGAUGAGUCCCUUAGUGGACGAAACAGC	1.78 ± 0.051	1.88 ± 0.058
GCUGUCACCGAGAAACUGUGAAGUAUAUCUUAAACCUGGGCACUUAAAAGAUAUAUGGAGUUAGUAGUGCAACCUGCUCGGUCUGAUGAGUCCACUCCAGGACGAAACAGC	1.7 ± 0.02	1.84 ± 0.11
GCUGUCACCGAGAAACUGUGAAGUAUAUCUUAAACCUGGGCACUUAAAAGAUAUAUGGAGUUAGUAGUGCAACCUGCUCGGUCUGAUGAGUCCGAAUACGGACGAAACAGC	1.62 ± 0.026	1.78 ± 0.095
GCUGUCACCGAGAAACUGUGAAGUAUAUCUUAAACCUGGGCACUUAAAAGAUAUAUGGAGUUAGUAGUGCAACCUGCUCGGUCUGAUGAGUCCGCACAGGGACGAAACAGC	1.58 ± 0.061	1.71 ± 0.14
GCUGUCACCGAGAAACUGUGAAGUAUAUCUUAAACCUGGGCACUUAAAAGAUAUAUGGAGUUAGUAGUGCAACCUGCUCGGUCUGAUGAGUCCGACUAGGGACGAAACAGC	1.668 ± 0.0042	1.79 ± 0.16
GCUGUCACCGAGAAACUGUGAAGUAUAUCUUAAACCUGGGCACUUAAAAGAUAUAUGGAGUUAGUAGUGCAACCUGCUCGGUCUGAUGAGUCCCCUUUUGGACGAAACAGC	1.59 ± 0.065	1.77 ± 0.073
GCUGUCACCGAGAAACUGUGAAGUAUAUCUUAAACCUGGGCACUUAAAAGAUAUAUGGAGUUAGUAGUGCAACCUGCUCGGUCUGAUGAGUCCCGGGCGGGACGAAACAGC	1.83 ± 0.066	1.94 ± 0.092
GCUGUCACCGAGAAACUGUGAAGUAUAUCUUAAACCUGGGCACUUAAAAGAUAUAUGGAGUUAGUAGUGCAACCUGCUCGGUCUGAUGAGUCCGUGGGAGGACGAAACAGC	1.53 ± 0.073	1.72 ± 0.07
GCUGUCACCGAGAAACUGUGAAGUAUAUCUUAAACCUGGGCACUUAAAAGAUAUAUGGAGUUAGUAGUGCAACCUGCUCGGUCUGAUGAGUCCUGCCAUGGACGAAACAGC	1.694 ± 0.0071	1.81 ± 0.11
GCUGUCACCGAGAAACUGUGAAGUAUAUCUUAAACCUGGGCACUUAAAAGAUAUAUGGAGUUAGUAGUGCAACCUGCUCGGUCUGAUGAGUCCAUUGUUGGACGAAACAGC	1.59 ± 0.025	1.77 ± 0.12
GCUGUCACCGAGAAACUGUGAAGUAUAUCUUAAACCUGGGCACUUAAAAGAUAUAUGGAGUUAGUAGUGCAACCUGCUCGGUCUGAUGAGUCCGGUUAGGGACGAAACAGC	1.54 ± 0.062	1.7 ± 0.08
GCUGUCACCGAGAAACUGUGAAGUAUAUCUUAAACCUGGGCACUUAAAAGAUAUAUGGAGUUAGUAGUGCAACCUGCUCGGUCUGAUGAGUCCCUUGGCGGACGAAACAGC	1.79 ± 0.034	1.92 ± 0.085
